Results from US7893027B2, “Treatment of ocular wounds and ulcers” (The Board of Regents of the University of Oklahoma, priority 2002, dated 2011).

Key:
Format in all cases: cell-based, human
VCAM-1 = experiment: RT-PCR of adhesion molecule mRNA in HCEC; settings: CAP37 1 μg/ml, 0-24 hr
Description: (§1) Cultured HCEC were treated with CAP37 (1 μg/ml) for 0-24 hr at 37° C. Total cellular RNA was isolated from untreated and treated HCEC according to vendor specifications (TRIzol™, GIBCO BRL). After reverse-transcription of 5 μg of total RNA by SuperScript™ II RT (GIBCOBRL) the resulting single stranded cDNA was amplified by PCR (BIOMETRA TGRADIENT, Göttingen, Germany) using specific primers for ICAM-1 (([…] (SEQ ID NO:11) and […] (SEQ ID NO:12)); VCAM-1 (([…] (SEQ ID NO:13) and […] (SEQ ID NO:14)); PECAM-1 (([…] (SEQ ID NO:15) and […] (SEQ ID NO:16)); E-selectin (([…] (SEQ ID NO:17) and […] (SEQ ID NO:18)); and β-actin ((TACCTCATGAAGATCCTCA (SEQ ID NO:19) and TTCGTGGATGCCACAGGAC (SEQ ID NO:20))) synthesized by the Molecular Biology Resource Facility, University of Oklahoma Health Sciences Center. The thermocycler conditions for ICAM-1 and VCAM-1 were 95° C. for 5 min initially, with 30 cycles at 95° C. for 1 min, 58° C. for 45 sec, 72° C. for 1 min followed by a final extension at 72° C. for 7 min. The conditions for E-selectin were 95° C. for 5 min initially, with 30 cycles at 94° C. for 1 min, 58° C. for 1 min, 72° C. for 1 min followed by a final extension at 72° C. for 5 min. The conditions for PECAM-1 were 95° C. for 5 min initially, with 30 cycles at 95° C. for 45 sec, 60° C. for 1 min, 72° C. for 1 min followed by a final extension at 72° C. for 5 min.
(§2) Amplified DNA fragments were separated by electrophoresis on a 1% agarose gel and visualized by exposure to UV after ethidium bromide (0.5 μg/ml) staining. Expected sizes for ICAM-1, VCAM-1, PECAM-1, E-selectin and β-actin were 943 bp, 700 bp, 677 bp, 315 bp and 267 bp, respectively. To assess the integrity of the cDNA, primers for human β-actin were used.

ICAM-1 = experiment: RT-PCR of adhesion molecule mRNA in HCEC; settings: CAP37 1 μg/ml, beginning at 2 hr and lasting through 24 hr
Description: as §1, §2

PECAM-1 = experiment: RT-PCR of adhesion molecule mRNA in HCEC; settings: CAP37 1 μg/ml
Description: as §1, §2

E-selectin = experiment: RT-PCR of adhesion molecule mRNA in HCEC; settings: CAP37 1 μg/ml, 0-24 hr
Description: as §1, §2

PECAM-1 (CD31) = experiment: Flow cytometry of PECAM-1 expression on HCEC; settings: CAP37 1 μg/ml
Description: Flow cytometry was used to assess the upregulation of PECAM-1 (CD31), and the integrin molecules β1 (CD29), β2 (CD18), β3 (CD61), β4 (CD104), α1 (CD49a), α2 (CD49b), α3 (CD49c), α4 (CD 49d), and αv (CD51). Human corneal epithelial cells were cultured as above and treated with CAP37 (0-2000 ng/ml) for 0-72 hr. A corresponding culture was left untreated at each time point. Following treatment with CAP37, cells were detached with 0.25% trypsin in 1 mM EDTA (pH 7.4, FISHER SCIENTIFIC, Pittsburgh, Pa.), washed twice in PBS and fixed with 0.125% paraformaldehyde (J.T. BAKER, Phillipsburg, N.J.) overnight at 4° C. The cells were washed in PBS and then incubated in 0.5% normal goat serum and 0.5% bovine serum albumin (BSA) in PBS for 30 min to block non-specific binding sites. Cells were incubated in the primary antibody (at concentrations described below) at 4° C. for 1 hr followed by the secondary antibody (FITC-goat anti-mouse IgG, PHARMINGEN, San Diego, Calif.) at 0.5 μg/10^6 cells and incubated at 4° C. for 30 min. The isotype control for these studies was FITC-labeled mouse isotype IgG1 (PHARMINGEN). The cells were analyzed by flow cytometry (FACS Calibur, BECTON DICKINSON, San Jose, Calif.). At least ten thousand cells were analyzed for each sample. […]

B1: CAP37: Cationic Antimicrobial Protein of Mr 37 kDa; recombinant protein from human 293 cells, identical to native PMN-derived CAP37 (SEQ ID NO:1) (protein, listed as Homo sapiens)
chain: IVGGRKARPRQFPFLASIQNQGRHFCGGALIHARFVMTAASCFQSQNPGVSTVVLGAYDLRRRERQSRQTFSISSMSENGYDPQQNLNDLMLLQLDREANLTSSVTILPLPLQNATVEAGTRCQVAGWGSQRSGGRLSRFPRFVNVTVTPEDQCRPNNVCTGVLTRRGGICNGDGGTPLVCEGLAHGVASFSLGPCGRGPDFFTRVALFRDWIDGVLNNPGP
mRNA expression of VCAM-1 (VCAM-1): did not show increase in mRNA expression | ICAM-1 message (ICAM-1): clear upregulation of ICAM-1 message | Time PECAM-1 message first detected after stimulation (PECAM-1): 2 h | Time of maximum PECAM-1 message (PECAM-1): 4 h | PECAM-1 message (PECAM-1; transient, not detected after 6 hr): upregulated | mRNA expression of E-selectin (E-selectin): did not show increase in mRNA expression | PECAM-1 protein expression (PECAM-1 (CD31); 24 hr): waned | PECAM-1 protein expression (PECAM-1 (CD31); at 6 hr, maintained through 12 hr): Significant protein expression
